Source: paper PMC3720700, “Structure of the SCAN Domain of Human Paternally Expressed Gene 3 Protein” (PLoS ONE, 2013)

B1: SCAN domain of human paternally expressed gene 3 protein (PEG3), amino acids 40-130 (domain or fragment)
chain: GHMTDSEFFHQRFRNLIYVEFVGPRKTLIKLRNLCLDWLQPETRTKEEIIELLVLEQYLTIIPEKLKPWVRAKKPENCEKLVTLLENYKEMYQP
notes: three non-native residues (Gly-His-Met) left at the N-terminus after TEV digestion; SCAN domain of human PEG3, amino acids 40-130 of UniProt Q9GZU2; theoretical mass of the construct 11,434 Da; Homodimer by gel filtration and in the crystal; The gene was synthetic (GenScript), in a modified pET15b vector; also called PEG3-SCAN; PEG3-SCAN domain; source: E. coli Bl21 (DE3) Gold, purified (HisTrap, …)
B2: human Siah1 without the RING domain (amino acids 91-282) (domain or fragment, UniProt Q8IUQ4 91-282, looked up)
chain: ANSVLFPCKYASSGCEITLPHTEKADHEELCEFRPYSCPCPGASCKWQGSLDAVMPHLMHQHKSITTLQGEDIVFLATDINLPGAVDWVMMQSCFGFHFMLVLEKQEKYDGHQQFFAIVQLIGTRKQAENFAYRLELNGHRRRLTWEATPRSIHEGIATAIMNSDCLVFDTSIAQLFAENGNLGINVTISMC
notes: human Siah1 without the RING domain, amino acids 91-282 of UniProt Q8IUQ4 (the results say residues 90-282); theoretical mass of a monomer 21,897 Da; The 15N-labelled form was used in the NMR experiment and the unlabelled form in gel filtration; it says only 'a similar protocol to that for PEG3-SCAN'; also called E3 ubiquitin-protein ligase Siah1; 15N-labeled Siah1; source: E. coli, purified by a …

Molecular target: the molecule itself
Assay: SEC; gel filtration of the single purified protein, Superdex 75 16/60 calibrated with molecular weight standards; 50 mM Tris-HCl pH 7.5, 150 mM NaCl

Row | Protein | stoichiometry N
1 | B1 | 2
2 | B2 | 2
